US20220213176A1
Like-named read-outs stand apart in the source and are kept apart here.

What was measured:
Conditions in all cases: remark: other sources report otherwise
[1] = target: SARS-CoV-2 spike E484K+N501Y+D614G (SARS-CoV-2), P0DTC2; assay: FACS MFI on transfected HEK293T cells, against D614G spike (mut 3)
[2] = target: T1, SARS-CoV-2 spike K417N+E484K+N501Y+D614G (SARS-CoV-2), P0DTC2; assay: as above
[3] = target: T2, SARS-CoV-2 spike receptor binding domain, wild-type (S-RBD) (SARS-CoV-2), P0DTC2; assay: BLI (Octet), S-RBD amine coupled on AR2G sensor, IgG4 in solution, 1:1 fit
[4] = target: T2, SARS-CoV-2 spike receptor binding …
[5] = target: N501Y S-RBD (SARS-CoV-2), P0DTC2; assay: BLI (Octet), N501Y S-RBD amine coupled on AR2G sensor, 1:1 fit
[6] = target: T2, SARS-CoV-2 spike receptor binding …; assay: BLI (Octet), S-RBD amine-coupled on AR2G sensor, 1:1 binding model [cont'd) h]
[7] = target: full-length SARS-CoV-2 spike (SARS-CoV-2), P0DTC2
[8] = target: SARS-CoV-2 spike K417N+N501Y+D614G (SARS-CoV-2), P0DTC2
[9] = target: SARS-CoV-2 spike N439K+D614G (SARS-CoV-2), P0DTC2
[10] = target: SARS-CoV-2 spike E484K+N501Y+D614G (SARS-CoV-2), P0DTC2
[11] = target: SARS-CoV-2 spike S247R (SARS-CoV-2), P0DTC2
[12] = target: SARS-CoV-2 spike N501Y+D614G (SARS-CoV-2), P0DTC2
[13] = target: SARS-CoV-2 spike D215H (SARS-CoV-2), P0DTC2
[14] = target: T1, SARS-CoV-2 spike …
[15] = target: SARS-CoV-2 spike D614G (SARS-CoV-2), P0DTC2
[16] = target: N501Y S-RBD (SARS-CoV-2), P0DTC2; assay: BLI (Octet), N501Y S-RBD amine-coupled on AR2G sensor, 1:1 binding model
[17] = target: N501Y S-RBD (SARS-CoV-2), P0DTC2
[18] = target: N501Y S-RBD (SARS-CoV-2), P0DTC2; assay: BLI (Octet), biotinylated N501Y S-RBD on SA biosensor, 1:1 binding model
[19] = target: T2, SARS-CoV-2 spike receptor binding …; assay: BLI (Octet), biotinylated S-RBD on SA biosensor, 1:1 binding model [cont'd) h]
[20] = target: N501Y S-RBD (SARS-CoV-2), P0DTC2; assay: BLI (Octet), biotinylated N501Y S-RBD on SA sensor, 1:1 fit
[21] = target: B.1.351 S-RBD (SARS-CoV-2), P0DTC2; assay: BLI (Octet RED96), biotinylated B.1.351 S-RBD on SA biosensor, 1:1 binding model
[22] = target: B.1.351 S-RBD (SARS-CoV-2), P0DTC2; assay: BLI (Octet RED96), biotin B.1.351 S-RBD on SA sensor, 1:1 fit
[23] = target: T2, SARS-CoV-2 spike receptor binding …; assay: BLI (Octet), biotinylated S-RBD on SA sensor, IgG4 in solution, 1:1 fit
[24] = target: T2, SARS-CoV-2 spike receptor binding …; assay: BLI (Octet RED96), biotin S-RBD on SA sensor, 1:1 fit; dimer S-E6, WT S-RBD
[25] = target: T2, SARS-CoV-2 spike receptor binding …; assay: BLI (Octet RED96), biotinylated WT S-RBD on SA biosensor, 1:1 binding model

B1: S-D4 (antibody, V domains shown)
VH: QVQLQESGGGVVQPGRSLRLSCEVSGFTFSDYGMHWVRQAPGKGLEWVAVIWSEGSTEYYADSVKGRFTISRDNSKDTLYLQMNSLRAEDTAVYYCARPGYPTSTDRSPAAAGARQYYYYGMDVWGQGTTVTVSS
VL: NFMLTQPHSVSESPGKTVTISCTRSGGSGAANYVQWYQQRPGSSPTTLIYEDSRRPPGVPDRFSGSVDTSSNSASLTISGLQTEDEADYYCQSYDSSNHVVFGGGTKLTVLG
**Q.** What does the source list for B1?
**A.** MFI as percent of mut 3 [1]: 33.2 % of mut 3; MFI as percent of mut 3 [2]: 35.6 % of mut 3; Kd [3]: 0.12 nM; IC50 [4]: 7.1 nM; Kd [5]: 0.097 nM; koff [6]: 4.6e-05 s⁻¹; kon [6]: 390000 M⁻¹ s⁻¹; MFI [7]: 43000; MFI [8]: 155000; MFI [9]: 360000; MFI [10]: 138000; MFI [11]: 335000; MFI [12]: 281000; MFI [13]: 411000; MFI [14]: 147000; MFI [15]: 414000; koff [16]: 4.2e-05 s⁻¹; kon [16]: 440000 M⁻¹ s⁻¹; koff [17]: 4.2e-05 s⁻¹; kon [17]: 440000 M⁻¹ s⁻¹

B2: S-E6 (antibody, V domains shown)
VH: QVTLRESGPGLVKPSETLSLTCAVSGGSLSSVNYYWSWIRQHPGKGLEWIGYIYYSGSTNYNPSLKSRVTMSLDTSKNQFSLKLSSVTAADTAVYYCATPGAIMGALHIWGQGTLVTVSS
VL: QAVLTQPSSASSTPGQRVIISCSGSSSNIGSNTVSWYQQVPGAAPKLLIYFDYRRPSGVPDRFSGTRSGTSASLGISGLQSEDEADYYCAAWDDSLSAWVFGRGTKLTVLG
**Q.** B2 was tested. Which koff [18] did it give?
**A.** 0.00025 s⁻¹

**Q.** And the kon [18]?
**A.** 1.2e+06 M⁻¹ s⁻¹

**Q.** What about the IC50 [4] of the same binder?
**A.** 12.2 nM

**Q.** What about the koff [19] of the same binder?
**A.** 0.00013 s⁻¹

**Q.** And the kon [19]?
**A.** 1.2e+06 M⁻¹ s⁻¹

**Q.** What about the Kd [20] of the same binder?
**A.** 0.21 nM

**Q.** And the MFI [7]?
**A.** 18200

**Q.** And the Kd [21]?
**A.** 1.58 nM

**Q.** And the koff [21]?
**A.** 0.000915 s⁻¹

**Q.** What about the kon [21] of the same binder?
**A.** 581000 M⁻¹ s⁻¹

**Q.** And the Kd [22]?
**A.** 1.58 nM

**Q.** And the Kd [23]?
**A.** 0.11 nM

**Q.** And the MFI [8]?
**A.** 312000

**Q.** And the MFI [9]?
**A.** 133000

**Q.** What about the MFI [10] of the same binder?
**A.** 139000

**Q.** What about the MFI [11] of the same binder?
**A.** 109000

**Q.** What about the MFI [12] of the same binder?
**A.** 153000

**Q.** What about the MFI [13] of the same binder?
**A.** 135000

**Q.** And the MFI [14]?
**A.** 141000

**Q.** And the MFI [15]?
**A.** 157000

**Q.** What about the koff [17] of the same binder?
**A.** 0.00025 s⁻¹

**Q.** And the kon [17]?
**A.** 1.2e+06 M⁻¹ s⁻¹

**Q.** And the Kd [24]?
**A.** 0.0836 nM

**Q.** What about the koff [25] of the same binder?
**A.** 3.37e-05 s⁻¹

**Q.** And the kon [25]?
**A.** 403000 M⁻¹ s⁻¹
